What follows are sequences tested on Escherichia coli TOP10 (assay: shrunken log2 fold change of peptide-encoding DNA abundance (4.5 h post-induction vs induction); higher = less antimicrobial activity (less host growth inhibition)). Settings: time post-induction: 4.5 h; library: site-saturation at positions 5, 18, 19, 20.
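Note: peptides expressed intracellularly from a pBAD plasmid library in pooled LB shake-flask culture, induced with 0.3% L-arabinose, DNA abundance read by NGS, three biological replicates, DESeq2 with apeglm shrinkage.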

| Sequence | shrunken log2 fold change |
| --- | --- |
| RRIRERPPRLPRPRPRPDHPPRP | -0.0179 |
| RRIRDRPPRLPRPRPRPQCAPRP | 0.0622 |
| RRIRMRPPRLPRPRPRPLQHPRP | 1.47 |
| RRIRQRPPRLPRPRPRPRHSPRP | -0.185 |
| RRIRSRPPRLPRPRPRPWHKPRP | -0.195 |
| RRIRCRPPRLPRPRPRPKNEPRP | -0.1 |
| RRIRQRPPRLPRPRPRPSEYPRP | -0.44 |
| RRIRARPPRLPRPRPRPLKQPRP | 0.469 |
| RRIRVRPPRLPRPRPRPPVYPRP | -0.329 |
| RRIRTRPPRLPRPRPRPTGMPRP | 0.13 |
| RRIRRRPPRLPRPRPRPWAGPRP | 0.0855 |
| RRIRRRPPRLPRPRPRPGHAPRP | 0.398 |
| RRIRKRPPRLPRPRPRPGFPPRP | 0.419 |
| RRIRMRPPRLPRPRPRPKGRPRP | -0.00141 |
| RRIRKRPPRLPRPRPRPIEGPRP | -0.00926 |
| RRIRFRPPRLPRPRPRPTLSPRP | 0.0323 |
| RRIRMRPPRLPRPRPRPPRGPRP | 1.17 |
| RRIRSRPPRLPRPRPRPTASPRP | 0.116 |
| RRIRKRPPRLPRPRPRPLYPPRP | -0.177 |
| RRIRFRPPRLPRPRPRPIIIPRP | -0.579 |
| RRIRRRPPRLPRPRPRPIIRPRP | 0.0674 |
| RRIRERPPRLPRPRPRPLRNPRP | 0.308 |
| RRIRYRPPRLPRPRPRPTISPRP | -0.893 |
| RRIRIRPPRLPRPRPRPWCMPRP | -0.693 |
| RRIRSRPPRLPRPRPRPGIWPRP | 0.123 |

| Sequence | shrunken log2 fold change |
| --- | --- |
| RRIRDRPPRLPRPRPRPPNQPRP | 0.317 |
| RRIRDRPPRLPRPRPRPLWGPRP | 0.294 |
| RRIRGRPPRLPRPRPRPYQHPRP | -0.376 |
| RRIRCRPPRLPRPRPRPNCPPRP | -0.413 |
| RRIRSRPPRLPRPRPRPTKSPRP | 0.0789 |
| RRIRWRPPRLPRPRPRPPGPPRP | 0.599 |
| RRIRDRPPRLPRPRPRPTGVPRP | -0.0117 |
| RRIRWRPPRLPRPRPRPDRMPRP | 0.0163 |
| RRIRERPPRLPRPRPRPEHWPRP | 0.0984 |
| RRIRTRPPRLPRPRPRPGMTPRP | -0.2 |
| RRIRNRPPRLPRPRPRPLTMPRP | -0.429 |
| RRIRDRPPRLPRPRPRPWTHPRP | -0.291 |
| RRIRNRPPRLPRPRPRPANKPRP | 0.0716 |
| RRIRVRPPRLPRPRPRPRACPRP | 0.274 |
| RRIRTRPPRLPRPRPRPINIPRP | -0.208 |
| RRIRERPPRLPRPRPRPGGSPRP | 0.154 |
| RRIRIRPPRLPRPRPRPSAGPRP | -0.334 |
| RRIRIRPPRLPRPRPRPCRLPRP | -0.468 |
| RRIRTRPPRLPRPRPRPPKQPRP | -0.00507 |
| RRIRARPPRLPRPRPRPGMWPRP | 0.485 |
| RRIRSRPPRLPRPRPRPWMVPRP | -0.267 |
| RRIRERPPRLPRPRPRPGCYPRP | -0.151 |
| RRIRCRPPRLPRPRPRPRQSPRP | 0.139 |
| RRIRHRPPRLPRPRPRPSRAPRP | 0.373 |
| RRIRGRPPRLPRPRPRPQAWPRP | 0.69 |

| Sequence | shrunken log2 fold change |
| --- | --- |
| RRIRIRPPRLPRPRPRPWHNPRP | -0.169 |
| RRIRRRPPRLPRPRPRPSDPPRP | -0.00173 |
| RRIRARPPRLPRPRPRPASIPRP | 0.0775 |
| RRIRNRPPRLPRPRPRPIHHPRP | -0.383 |
| RRIRRRPPRLPRPRPRPGRIPRP | 0.0214 |
| RRIRARPPRLPRPRPRPAHMPRP | -0.114 |
| RRIRMRPPRLPRPRPRPSPIPRP | -0.106 |
| RRIRKRPPRLPRPRPRPPTKPRP | 0.12 |
| RRIRWRPPRLPRPRPRPGMQPRP | 0.775 |
| RRIRRRPPRLPRPRPRPAKVPRP | 0.0346 |
| RRIRARPPRLPRPRPRPMWVPRP | -0.0205 |
| RRIRRRPPRLPRPRPRPQKMPRP | -0.02 |
| RRIRYRPPRLPRPRPRPRRSPRP | -0.0446 |
| RRIRSRPPRLPRPRPRPGQQPRP | 0.0543 |
| RRIRRRPPRLPRPRPRPEVNPRP | -0.0845 |
| RRIRPRPPRLPRPRPRPVQDPRP | -0.0784 |
| RRIRQRPPRLPRPRPRPRTNPRP | 0.158 |
| RRIRGRPPRLPRPRPRPPRGPRP | 0.938 |
| RRIRKRPPRLPRPRPRPGWRPRP | 0.348 |
| RRIRLRPPRLPRPRPRPLIMPRP | -0.435 |
| RRIRERPPRLPRPRPRPAPQPRP | 0.31 |
| RRIRGRPPRLPRPRPRPHFVPRP | 0.466 |
| RRIRVRPPRLPRPRPRPGMVPRP | 0.0182 |
| RRIRSRPPRLPRPRPRPSYDPRP | -0.609 |
| RRIRCRPPRLPRPRPRPFHQPRP | -0.429 |

Source: the supplement of paper PMC9112550, “Optimization of the antimicrobial peptide Bac7 by deep mutational scanning” (BMC Biology, 2022)
